* marks the point of attachment. FITC = O=C1OC2(c3ccc(O)cc3Oc3cc(O)ccc32)c2ccc(NC(=S)*)cc21; βAla = NCCC(=O)O
Biological target: doubly-mutant HR1 peptides
Test: native PAGE complex assembly assay, densitometry of fluorescence scans

B1: FITC-SAH-gp41(626-662)(A, F) (peptide)
peptide: {FITC-βAla}-LTWAEWDAEINNYTSLIHSLIEESQNQAEKNAQELLE-NH2
modifications: staple (positions not given here); also: two hydrocarbon staples from S5 residues, positions not given here
fold enhancement in binding activity compared to FITC-T649v: < 2 fold

— patent US20120141527A1
